# Measurements taken from US20220226469A1 (ARCH ONCOLOGY, published 2022).
# B1: SIRP4 (antibody, V domains shown)
# VH: EVQLQQSGPDLVKPGASVKISCKASGYSFTDYFLNWVKQSHGKSLEWIGRINPYNGDSFINQNFRDKATLTVDKSSTTAHMDLLSLTSEDSAIYYCGRGGYDGYFIAYFDYWGQGSLVTVSA
# VL: DIKLTQSQSSMYSSLGQRVTITCKASQDINSHLSWFQEKPGKSPKTLIYRANRLADGVPSRFSGSGSGQDYFLTISSLEYEDVGIYYCLQYDEFPYTFGGGTKLEIK
# notes: anti-mouse secondary
# B2: SIRP3 (antibody, mouse IgG1, kappa, V domains shown)
# VH: EVQLQQSGPEVVKPGASVKMSCKASGYTFTSYVMHWVKQKPGQGLEWIGYINPYNDGPKYNEKFKGKATLTSDKSSSTAYMELSSLTSEDSAVYFCARWDYFNSASGFAFWGQGTLVTVSA
# VL: EIVLTQSPTTMAASPGEKITIICSASSIIGSDFLHWYQQRPGFSPKFLIYRTSILASGVPTRFTGSGSGTSYSLTIGTMEAEDVATYYCQQGSGLPLTFGSGTKLEMKR
# notes: Hybridoma-derived mouse mAb
# B3: SIRP7 (antibody, V domains shown)
# VH: EVQLQQSGPELVKPGASVKMSCRASGYTFSTYVMHWIKHRPGQGLEWIGYINPNNDGPNYNEKFKGKATLTSDISSSTAYMELSSLTSEDSAVYFCSRWDSYNSAAGFAYWGHGTLVTVSA
# VL: EIVLTQSPTTMAASPGEKITIICSASSSISSNFLHWYQQKPGFSPRFLIYRTSILASGVPTRFSGSGSGTSYSLTIDTMEAEDVATYYCQQGSGLPLTFGSGTKLEIK
# B4: SIRP2 (antibody, mouse IgG1, kappa, V domains shown)
# VH: EVKLVESGGGLVQPGGSLKLSCAASGFSFSGCTMSWIRQTPERRLEWVAYISNGGDITYYPDTVKGRFTISRDNAKNSLYLQMSSLKSEDTAMYYCARLDGYYYAMDFWGQGTSVTVSS
# VL: DILLTQSPAILSVSPGERVSFSCRASQSIGTSIHWYQQRTNGSPRLLIKYGSESISGIPSRFSGSGSGTDFTLSINSVESEDIADYYCQQSNTWPLTFGDGTKLELKR
# notes: Hybridoma-derived mouse mAb
# B5: SIRP5 (antibody, V domains shown)
# VH: QVQLQQSAAELARPGASVKMSCKASGYTFTSYTMHWVKQRPGQGLEWIGYINPTIGYTEYNQKFKDKTTLTADKSSSTAYMQLSSLTSEDSAVYYCVRLVITSVLGRAMDYWGQGTSVTVSS
# VL: QIVLTQSPALMSASPGEKVTMTCSASSSVSYMYWFQQKPRSSPKPWIYLTSNLASGVPARFSGSGSGTSYSLTISSMEAEDAATYYCQQWSGNPFTFGSGTKLEIK
# B6: KWAR-23 (antibody, V domains shown)
# VH: EVQLQQSGAELVKPGASVKLSCTASGFNIKDYYIHWVQQRTEQGLEWIGRIDPEDGETKYAPKFQDKATITADTSSNTAYLHLSSLTSEDTAVYYCARWGAYWGQGTLVTVSA
# VL: QIVLTQSPAIMSASPGEKVTLTCSASSSVSSSYLYWYQQKPGSSPKLWIYSTSNLASGVPARFSGSGSGTSYSLTISSMEAEDAASYFCHQWSSYPRTFGAGTKLELKR
# B7: SIRP9 (antibody, V domains shown)
# VH: EVQLQESGAELVRPGASVKLSCKALGYTFTDYEIHWVKETPVYGLEWIGDIHPGSGGTANNQKFKGKATLTADKSSNTAYMELSSLTSEDSAVYYCTRAVSGYYAMDYWGQGTSVTVSS
# VL: DIQMTQSSSSFSGSLGDRLTINCKASEDIYDRVAWYQQKPGNAPRLLISGTASLETGVLSRFSGSGSGKDYTLSINGLQAEDVATYYCQQYWTTPWTFGGGTKLEIK
# notes: anti-mouse secondary
# Target: T1, HIS tagged human SIRPα (ACRO #SIG-H5225) (human, UniProt P78324 31-373)
# T1 construct: Bought protein; also called Histidine (HIS) tagged human SIRPα; not shown: histidine tag
# Test: blocking ELISA on plate-coated HIS tagged human SIRPα; competitor Fc tagged human CD47 (250 ng/ml)
# Description: HIS tagged human SIRPα (ACRO #SIG-H5225) is adsorbed to high-binding microtiter plates at a concentration of 1 μg/ml diluted in PBS overnight at 4° C. The coating solution is removed, the wells are washed and then blocked with […] in PBS containing 0.5% Tween 20 (PBST) for 60 minutes at room temperature while shaking. Blocking solution is removed, the wells are washed and incubated for 60 minutes at room temperature while shaking with anti-SIRP mAbs diluted in PBST at a starting concentration of 30 μg/ml and reducing the concentration by 3-fold serial dilutions. Wells are washed three times with PBST and incubated for 60 minutes at room temperature while shaking with an FC tagged human CD47 (ACRO #CD7-H5256) at a concentration of 250 ng/ml in PBST. Wells are washed three times with PBST and incubated for 60 minutes at room temperature while shaking with an HRP labeled donkey anti-mouse or anti-human secondary antibody (Jackson ImmunoResearch Laboratories) diluted 1:20,000 in PBST. The wells are washed and then incubated with peroxidase substrate and the absorbance at 450 nm determined. The IC₅₀ was calculated using a non-linear fit model (GraphPad Prism).
# T1 sequence (P78324 31-373 limits assumed): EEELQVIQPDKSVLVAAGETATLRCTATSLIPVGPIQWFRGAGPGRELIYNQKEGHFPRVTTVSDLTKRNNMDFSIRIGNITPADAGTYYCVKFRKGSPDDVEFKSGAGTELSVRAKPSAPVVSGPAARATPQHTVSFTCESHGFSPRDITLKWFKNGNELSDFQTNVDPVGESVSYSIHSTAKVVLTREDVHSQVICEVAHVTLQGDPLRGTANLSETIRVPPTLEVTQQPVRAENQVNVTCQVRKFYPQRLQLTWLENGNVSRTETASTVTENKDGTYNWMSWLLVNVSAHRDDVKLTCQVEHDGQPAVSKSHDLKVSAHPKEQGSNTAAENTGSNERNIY
row,IC50,Binder
1,0.71 nM,B1
2,2.7 nM,B2
3,1.1 nM,B3
4,3 nM,B4

# Target: T2, human SIRPα expressed on cells (THP-1 cells, human monocyte-derived macrophages, dendritic cells) (human, UniProt P78324 31-504)
# T2 construct: Endogenous SIRPα of cell line or donor cells; also called cell-expressed SIRPα; macrophage expressed SIRPα
# Test: flow cytometry on human monocyte-derived dendritic cells; apparent Kd
# Description: (§1) Human CD14⁺ monocytes, isolated from peripheral blood mononuclear cells (Astarte Biologics) were differentiated in vitro for seven days into macrophages or dendritic cells. For macrophage differentiation, monocytes were incubated in AIM-V media (Life Technologies) supplemented with 50 ng/ml M-CSF (Biolegend) for seven days. For dendritic cell differentiation, monocytes were incubated in AIM-V media (Life Technologies) in the presence of 10% human AB serum (Valley Biomedical), 200 ng/ml GM-CSF (Biolegend) and 50 ng/ml IL-4 (Biolegend). The cells were incubated for 1 h at 37° C., 5% CO₂ with serial dilutions of SIRP mAbs in binding buffer containing 1 mM EDTA (Sigma Aldrich) and 1% FBS (Biowest) in PBS (Corning). The cells were then washed and stained for 45 min under the same conditions with donkey anti-mouse IgG fluorescein isothiocyanate (FITC)-linked secondary antibody (Jackson ImmunoResearch Laboratories). The cells were subsequently stained with anti-CD14 or anti-CD11c conjugated to Alexa Fluor 647 fluorophore (Life Technologies and Biolegend, respectively) for 30 min on ice, washed and analyzed by flow cytometry (Attune, Life Technologies). Binding was assessed as the median FITC fluorescence intensity of CD14⁺ or CD11c⁺ cells, subtracted from cells stained with the secondary antibody only.
# T2 sequence (P78324 other isoform, or with tags, fused parts or gaps): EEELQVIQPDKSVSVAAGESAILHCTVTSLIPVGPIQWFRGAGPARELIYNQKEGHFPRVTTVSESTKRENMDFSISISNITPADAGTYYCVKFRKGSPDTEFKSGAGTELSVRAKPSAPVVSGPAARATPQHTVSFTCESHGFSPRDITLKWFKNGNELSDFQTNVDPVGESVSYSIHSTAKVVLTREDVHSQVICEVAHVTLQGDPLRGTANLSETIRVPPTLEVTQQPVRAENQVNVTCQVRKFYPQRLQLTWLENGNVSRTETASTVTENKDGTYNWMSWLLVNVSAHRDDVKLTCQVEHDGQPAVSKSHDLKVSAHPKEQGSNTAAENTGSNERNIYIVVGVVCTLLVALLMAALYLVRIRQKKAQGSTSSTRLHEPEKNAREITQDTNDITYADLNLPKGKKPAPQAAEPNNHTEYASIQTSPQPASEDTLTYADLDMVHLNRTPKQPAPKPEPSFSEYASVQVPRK
row,Kd,Binder
1,0.05 nM,B1
2,0.00347 nM,B2
3,0.77 nM,B5
4,0.0234 nM,B6

# Target: T2, human SIRPα expressed on cells (THP-1 …)
# Test: flow cytometry on human monocyte-derived macrophages; apparent Kd
# Description: as §1
row,Kd,Binder
1,0.0207 nM,B1
2,0.0937 nM,B7
